Nine molecules from patent EP2718311B1 (TLA Targeted Immunotherapies AB, dated 2018) can be followed below.

One assay deals with hCXCR3 (human) (UniProt P49682). Description: cell-based or functional assay.
The target in the next assay is hCCR9 (human) (UniProt P51686). Description: cell-based or functional assay.
Assay [1] deals with hCCR3 (human) (UniProt P51677). Description: cell-based or functional assay.
A further assay deals with hCCR6 (human) (UniProt P51684). As to the kind of experiment: cell-based or functional assay.
Assay [2] deals with hCCR5 (human) (UniProt P51681). Description: cell-based or functional assay.
Assay [3] has as its target T1, CCR1 on human peripheral blood cells (human) (UniProt P32246).
T1 sequence (looked up): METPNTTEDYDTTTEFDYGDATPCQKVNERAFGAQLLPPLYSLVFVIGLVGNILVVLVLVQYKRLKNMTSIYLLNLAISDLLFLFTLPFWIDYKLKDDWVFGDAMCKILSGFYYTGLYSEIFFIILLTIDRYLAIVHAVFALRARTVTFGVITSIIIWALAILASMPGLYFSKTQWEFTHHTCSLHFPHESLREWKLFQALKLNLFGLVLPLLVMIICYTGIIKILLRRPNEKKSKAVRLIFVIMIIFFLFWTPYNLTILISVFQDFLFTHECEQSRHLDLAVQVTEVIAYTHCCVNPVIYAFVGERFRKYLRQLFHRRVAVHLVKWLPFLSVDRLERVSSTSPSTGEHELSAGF
Description: blood of a healthy donor passed through a column of biotinylated RANTES coupled matrix; flow cytometry for CCR1, 3 and 5-expressing cells. Background: In flow cytometry, cells or beads pass a laser one at a time.

Assay [4] addresses hCCR3 (human) (UniProt P51677). Described as above.
The target of assay [5] is hCCR5 (human) (UniProt P51681). The description is as above.
For assay [6], the target named is CCR2 on human peripheral blood cells (monocytes, T cells) (human) (UniProt P41597). As to the kind of experiment: flow cytometry, labelled MCP-1 on fixed blood leukocytes of healthy donors, 30 min at 4 °C.
For assay [7] the target is unchanged. As to the kind of experiment: blood of three healthy donors passed through a column of bMCP-1 coupled matrix; flow cytometry before and after.
The target of a further assay is T2, hCCR2b (human, UniProt P41597 1-374).
T2 chain: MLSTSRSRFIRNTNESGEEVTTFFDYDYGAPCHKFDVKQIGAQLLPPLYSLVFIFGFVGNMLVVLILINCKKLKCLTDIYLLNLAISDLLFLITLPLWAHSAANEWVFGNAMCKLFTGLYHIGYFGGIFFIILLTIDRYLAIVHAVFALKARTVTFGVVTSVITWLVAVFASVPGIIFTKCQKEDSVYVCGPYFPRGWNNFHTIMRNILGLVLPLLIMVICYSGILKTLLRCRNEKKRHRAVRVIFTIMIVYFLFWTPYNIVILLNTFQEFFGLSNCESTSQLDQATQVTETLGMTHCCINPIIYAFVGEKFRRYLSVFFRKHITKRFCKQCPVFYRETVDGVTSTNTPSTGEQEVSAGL
Description: cell-based or functional assay.

Sequence of hCCR5 (human) (P51681 whole entry): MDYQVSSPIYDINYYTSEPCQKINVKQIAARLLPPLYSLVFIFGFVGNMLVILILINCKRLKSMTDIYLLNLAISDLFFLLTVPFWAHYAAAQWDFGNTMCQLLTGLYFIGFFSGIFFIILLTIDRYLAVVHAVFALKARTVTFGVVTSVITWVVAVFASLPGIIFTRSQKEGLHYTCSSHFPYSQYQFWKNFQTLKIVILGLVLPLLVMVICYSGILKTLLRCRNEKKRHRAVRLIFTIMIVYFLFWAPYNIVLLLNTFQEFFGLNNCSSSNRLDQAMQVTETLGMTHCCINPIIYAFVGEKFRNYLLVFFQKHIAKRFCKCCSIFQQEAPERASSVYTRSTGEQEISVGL
Sequence of hCXCR3 (human) (P49682 whole entry): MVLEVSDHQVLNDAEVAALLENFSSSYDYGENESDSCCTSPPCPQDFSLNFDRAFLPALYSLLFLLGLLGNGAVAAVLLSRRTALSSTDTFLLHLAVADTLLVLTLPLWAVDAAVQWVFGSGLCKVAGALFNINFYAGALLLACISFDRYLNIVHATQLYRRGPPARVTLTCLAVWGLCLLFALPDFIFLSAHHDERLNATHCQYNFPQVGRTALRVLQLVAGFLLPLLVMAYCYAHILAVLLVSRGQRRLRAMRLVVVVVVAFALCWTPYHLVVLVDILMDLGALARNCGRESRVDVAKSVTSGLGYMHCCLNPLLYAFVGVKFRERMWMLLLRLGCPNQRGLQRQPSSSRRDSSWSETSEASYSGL
Sequence of hCCR3 (human) (P51677 whole entry): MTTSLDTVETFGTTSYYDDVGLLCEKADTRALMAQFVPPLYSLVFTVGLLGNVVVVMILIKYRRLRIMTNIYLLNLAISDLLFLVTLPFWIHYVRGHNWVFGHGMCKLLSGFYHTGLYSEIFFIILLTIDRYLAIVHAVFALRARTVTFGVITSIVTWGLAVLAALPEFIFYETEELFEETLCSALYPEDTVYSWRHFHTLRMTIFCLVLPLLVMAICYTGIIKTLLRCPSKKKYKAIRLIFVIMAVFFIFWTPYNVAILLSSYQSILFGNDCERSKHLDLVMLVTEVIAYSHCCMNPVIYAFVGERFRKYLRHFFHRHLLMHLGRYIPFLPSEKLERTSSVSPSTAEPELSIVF
Sequence of hCCR9 (human) (P51686 whole entry): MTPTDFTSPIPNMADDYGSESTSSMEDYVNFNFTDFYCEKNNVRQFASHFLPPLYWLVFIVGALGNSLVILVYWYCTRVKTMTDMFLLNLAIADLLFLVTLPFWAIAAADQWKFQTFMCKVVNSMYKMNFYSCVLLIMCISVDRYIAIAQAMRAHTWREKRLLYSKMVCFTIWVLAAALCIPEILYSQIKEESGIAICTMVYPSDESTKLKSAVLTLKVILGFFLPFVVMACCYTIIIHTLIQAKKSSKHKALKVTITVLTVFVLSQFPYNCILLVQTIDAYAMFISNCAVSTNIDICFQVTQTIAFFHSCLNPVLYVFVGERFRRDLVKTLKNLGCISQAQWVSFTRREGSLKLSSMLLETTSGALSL
Sequence of hCCR6 (human) (P51684 whole entry): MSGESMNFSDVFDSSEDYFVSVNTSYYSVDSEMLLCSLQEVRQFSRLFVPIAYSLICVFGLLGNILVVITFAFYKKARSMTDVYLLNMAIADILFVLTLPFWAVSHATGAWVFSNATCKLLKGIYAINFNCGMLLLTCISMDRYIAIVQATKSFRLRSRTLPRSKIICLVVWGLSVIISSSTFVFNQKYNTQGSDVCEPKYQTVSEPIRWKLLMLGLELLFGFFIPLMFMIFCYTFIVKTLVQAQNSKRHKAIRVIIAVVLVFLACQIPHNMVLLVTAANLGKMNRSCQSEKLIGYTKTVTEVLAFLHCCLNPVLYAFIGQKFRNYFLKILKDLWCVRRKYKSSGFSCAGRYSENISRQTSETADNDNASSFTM

As for “recombinant native IP-10 (from UniProt P02778 22-98) (ligand)”, the agonist activity in an Aequorin assay, EC50 in the assay with hCXCR3 (human) came to 4.4 nM.

The molecule “recombinant native TECK (from UniProt O15444 24-150) (ligand)” gave an agonist activity in an Aequorin assay, EC50 with hCCR9 (human) of 67.9 nM.

As for “recombinant native eotaxin (from UniProt P51671 24-97) (ligand)”, the activity in an Aequorin assay (agonist), EC50 with hCCR3 (human) [1] is 10.7 nM.

“recombinant native ITAC (from UniProt O14625 22-94) (ligand)” returned an agonist activity in an Aequorin assay, EC50 in the assay with hCXCR3 (human) of 0.7 nM.

“recombinant native MIP-3α (from UniProt P78556 27-96) (ligand)” came in with an agonist activity in an Aequorin assay, EC50 in the assay with hCCR6 (human) of 1 nM.

Take “biotinRANTES (CCL5) (from UniProt P13501 24-91) (ligand)”: in the assay with hCCR5 (human) [2], the agonist activity in an Aequorin assay, EC50 stood at 0.5 nM. Also, the reduction of chemokine receptor-expressing cells by the column (in [3]; with hCCR3 (human) [4]; with hCCR5 (human) [5]) was 20% each time.

“biotinTECK(Met to Nleu substitution) (from UniProt O15444 25-97) (ligand)” yielded an agonist activity in an Aequorin assay, EC50 in the assay with hCCR9 (human) of 63.6 nM.

For the molecule “biotinylated MCP-1 (from UniProt P13500 24-99) (ligand)”, the percent of monocytes that bound the chemokine in assay [6] stood at 90%. Also, the remaining levels of monocytes after column passage in assay [7] is 20 to 30%.

B1: recombinant native MCP-2 (ligand, human, UniProt P80075 24-99, looked up)
chain: QPDSVSIPITCCFNVINRKIPIQRLESYTRITNIQCPKEAVIFKTKRGKEVCADPKERWVRDSMKHLDQIFQNLKP
For B1, the “activity in an Aequorin assay (partial agonist), EC50” value with hCCR2b is 23.5 nM.
